Data on 1 molecule can be found in paper PMC5834252, “Targeting scFv-Fc-scTRAIL fusion proteins to tumor cells” (Oncotarget, 2018).

The target of this test is T1, Mouse TRAIL-R2-Fc (mouse, UniProt Q9QZM4 53-180).
T1 construct: mouse TRAIL-R2; Named in the materials only; source: bought: Sino Biological Inc. (50412-M03H)
Put plainly: ELISA; Fc fusion proteins of human and mouse TRAIL receptors coated (200 ng/well); 40 nM scTRAIL units; detected with anti-FLAG-HRP; relative OD450. The note with it: both partners purified.

T1 sequence (Q9QZM4 53-180): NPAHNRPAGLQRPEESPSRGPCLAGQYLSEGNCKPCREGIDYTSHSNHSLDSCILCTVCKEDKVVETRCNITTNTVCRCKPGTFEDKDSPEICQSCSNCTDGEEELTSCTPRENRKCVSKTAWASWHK

B1: Fc-scTRAIL (Fc fusion, human)
chain: GPQRVAAHITGTRGRSNTLSSPNSKNEKALGRKINSWESSRSGHSFLSNLHLRNGELVIHEKGFYYIYSQTYFRFQEEIKENTKNDKQMVQYIYKYTSYPDPILLMKSARNSCWSKDAEYGLYSIYQGGIFELKENDRIFVSVTNEHLIDMDHEASFFGAFLVGGGPQRVAAHITGTRGRSNTLSSPNSKNEKALGRKINSWESSRSGHSFLSNLHLRNGELVIHEKGFYYIYSQTYFRFQEEIKENTKNDKQMVQYIYKYTSYPDPILLMKSARNSCWSKDAEYGLYSIYQGGIFELKENDRIFVSVTNEHLIDMDHEASFFGAFLVGGGPQRVAAHITGTRGRSNTLSSPNSKNEKALGRKINSWESSRSGHSFLSNLHLRNGELVIHEKGFYYIYSQTYFRFQEEIKENTKNDKQMVQYIYKYTSYPDPILLMKSARNSCWSKDAEYGLYSIYQGGIFELKENDRIFVSVTNEHLIDMDHEASFFGAFLVG
notes: human TRAIL, first protomer of single-chain TRAIL (scTRAIL), amino acids 118-281; single glycine residue as linker between the TRAIL protomers; human TRAIL, second protomer of scTRAIL, amino acids 118-281; human TRAIL, third protomer of scTRAIL, amino acids 118-281; scTRAIL is fused to the C-terminus of the human gamma1 Fc; disulfide-linked dimer (hexavalent TRAIL); also called non-targeted …
As to B1, the binding result is recorded as “binds”.
